Each block holds one binder with its values, some of them ahead of it.
B1: sgp130Fc (fusion protein of soluble hgp130 to the Fc-part of an IgG antibody) (Fc fusion, human, UniProt P40189 23-619, looked up)
chain: ELLDPCGYISPESPVVQLHSNFTAVCVLKEKCMDYFHVNANYIVWKTNHFTIPKEQYTIINRTASSVTFTDIASLNIQLTCNILTFGQLEQNVYGITIISGLPPEKPKNLSCIVNEGKKMRCEWDGGRETHLETNFTLKSEWATHKFADCKAKRDTPTSCTVDYSTVYFVNIEVWVEAENALGKVTSDHINFDPVYKVKPNPPHNLSVINSEELSSILKLTWTNPSIKSVIILKYNIQYRTKDASTWSQIPPEDTASTRSSFTVQDLKPFTEYVFRIRCMKEDGKGYWSDWSEEASGITYEDRPSKAPSFWYKIDPSHTQGYRTVQLVWKTLPPFEANGKILDYEVTLTRWKSHLQNYTVNATKLTVNLTNDRYLATLTVRNLVGKSDAAVLTIPACDFQATHPVMDLKAFPKDNMLWVEWTTPRESVKKYILEWCVLSDKAPCITDWQQEDGTVHRTYLRGNLAESKCYLITVTPVYADGPGSPESIKAYLKQAPPSKGPTVRTKKVGKNEAVLEWDQLPVDVQNGFIRNYTIFYRTIIGNETAVNVDSSHTEYTLSSLTSDTLYMVRMAAYTDEGGKDGPEFTFTTPKFAQGEIE
B3: Hyper IL-11 (fusion protein of shIL-11R and hIL-11), Twin-Strep-tagged (other)
chain: SSPCPQAWGPPGVQYGQPGRSVKLCCPGVTAGDPVSWFRDGEPKLLQGPDSGLGHELVLAQADSTDEGTYICQTLDGALGGTVTLQLGYPPARPVVSCQAADYENFSCTWSPSQISGLPTRYLTSYRKKTVLGADSQRRSPSTGPWPCPQDPLGAARCVVHGAEFWSQYRINVTEVNPLGASTRLLDVSLQSILRPDPPQGLRVESVPGYPRRLRASWTYPASWPCQPHFLLKFRLQYRPAQHPAWSTVEPAGLEEVITDAVAGLPHAVRVSARDFLDAGTWSTWSPEAWGTPSTGGGSGGGSPGPPPGPPRVSPDPRAELDSTVLLTRSLLADTRQLAAQLRDKFPADGDHNLDSLPTLAMSAGALGALQLPGVLTRLRADLLSYLRHVQWLRRAGGSSLKTLEPELGTLQARLDRLLRRLQLLMSRLALPQPPPDPPAPPLAPPSSAWGGIRAAHAILGGLHLTLDWAVRGLLLLKTRL

Experiments:
[1] = molecular target: B3; assay: cell-based or functional assay
[2] = molecular target: chimeric Hyper-cytokine IL-6/sIL-11R (cHIL-6), Twin-Strep-tagged (human, UniProt Q14626 23-317); assay: cell-based or functional assay
[3] = molecular target: Hyper IL-6 (fusion protein of human sIL-6R and human IL-6), Twin-Strep-tagged (human); assay: cell-based or functional assay
[4] = molecular target: T1, recombinant his-tagged soluble human IL-11R (human, UniProt Q14626 24-370); assay: SPR; Biacore X100, multi-cycle, NTA sensor chip; his-tagged soluble hIL-6R or hIL-11R immobilised (100-250 RU per cycle); cytokines injected 133.33 to 0.183 nM, 30 uL/min, 180 s, dissociation 800 s; 25 °C, PBS with 0.05% P20 and 50 uM EDTA; two-state reaction fit; set-up: ka1 (two-state fit, first step) / ka2 (two-state fit, second step): unit not given here; settings: both partners purified
T1 construct: soluble human IL-11 α-receptor; In functional rows this id also stands for hIL-11R expressed on Ba/F3 cells (whole receptor); the readout says so; also called sIL-11R; shIL-11R; source: bought: R&D Systems (cat no. 8895-MR)
T1 sequence (looked up): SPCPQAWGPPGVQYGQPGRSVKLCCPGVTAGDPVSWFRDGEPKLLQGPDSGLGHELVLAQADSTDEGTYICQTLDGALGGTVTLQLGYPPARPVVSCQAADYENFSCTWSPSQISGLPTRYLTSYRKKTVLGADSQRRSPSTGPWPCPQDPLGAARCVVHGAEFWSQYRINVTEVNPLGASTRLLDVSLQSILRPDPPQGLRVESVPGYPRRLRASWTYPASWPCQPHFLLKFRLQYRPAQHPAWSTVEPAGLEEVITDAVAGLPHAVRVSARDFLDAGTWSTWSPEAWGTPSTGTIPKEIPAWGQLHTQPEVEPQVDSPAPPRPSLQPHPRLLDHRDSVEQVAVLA

[5] = molecular target: T2, recombinant his-tagged soluble human IL-6R (human, UniProt P08887 20-365); assay: as above; set-up: ka1 (two-state fit, first step) / ka2 (two-state fit, second step): unit not given here; settings: both partners purified
T2 construct: soluble human IL-6 α-receptor; In functional rows this id also stands for hIL-6R expressed on Ba/F3 cells (whole receptor); the readout says so; also called sIL-6R; shIL-6R; source: bought: R&D Systems (cat. no. 10537)
T2 sequence (looked up): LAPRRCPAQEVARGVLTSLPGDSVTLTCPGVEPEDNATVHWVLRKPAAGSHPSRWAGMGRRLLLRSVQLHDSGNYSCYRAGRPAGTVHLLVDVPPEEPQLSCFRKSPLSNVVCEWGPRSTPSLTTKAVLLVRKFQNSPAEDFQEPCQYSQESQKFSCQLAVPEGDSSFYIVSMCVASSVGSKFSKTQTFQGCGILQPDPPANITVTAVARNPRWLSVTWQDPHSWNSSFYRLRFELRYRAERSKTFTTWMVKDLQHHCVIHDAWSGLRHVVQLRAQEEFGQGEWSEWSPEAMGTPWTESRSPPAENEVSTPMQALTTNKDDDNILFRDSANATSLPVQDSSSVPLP

[6] = molecular target: T1, recombinant his-tagged soluble human …; assay: cell-based or functional assay
[7] = molecular target: B1; assay: SPR; Biacore X100, Protein A sensor chip; sgp130Fc captured via its Fc (200-300 RU per cycle); hyper-cytokines injected 30 uL/min, 120 s, dissociation 300 s (200-0.20 nM cHIL-6, 25-0.05 nM HIL-6, 50-0.62 nM HIL-11); 1:1 binding model; settings: both partners purified
[8] = molecular target: B1; assay: cell-based or functional assay

Binder: B1
IC50 of sgp130Fc on growth of Ba/F3-gp130 cells induced by 1.7 nM HIL-11 (blocks HIL-11 with gp130 on cells) [1]: 0.213 nM
IC50 of sgp130Fc on growth of Ba/F3-gp130 cells induced by 1.7 nM cHIL-6 (blocks cHIL-6 with gp130 on cells) [2]: 0.324 nM
IC50 of sgp130Fc on growth of Ba/F3-gp130 cells induced by 1.7 nM HIL-6 (blocks HIL-6 with gp130 on cells) [3]: 0.428 nM

Kd [4]: 0.53 nM
ka1 (two-state fit, first step) [4]: 2.3e+06
ka2 (two-state fit, second step) [4]: 0.00454
kd1 (two-state fit, first step) [4]: 0.00692 s⁻¹
kd2 (two-state fit, second step) [4]: 0.000972 s⁻¹
Kd [5]: 58.4 nM
ka1 (two-state fit, first step) [5]: 164000
ka2 (two-state fit, second step) [5]: 0.0112
kd1 (two-state fit, first step) [5]: 0.0925 s⁻¹
kd2 (two-state fit, second step) [5]: 0.00129 s⁻¹
EC50 of proliferation of Ba/F3-hgp130-hIL-11R cells (hIL-11R on cells), 72 h [6]: 0.0216 nM
B2: Twin-strep-tagged human IL-11 (ligand, UniProt P20809 22-199, looked up)
chain: PGPPPGPPRVSPDPRAELDSTVLLTRSLLADTRQLAAQLRDKFPADGDHNLDSLPTLAMSAGALGALQLPGVLTRLRADLLSYLRHVQWLRRAGGSSLKTLEPELGTLQARLDRLLRRLQLLMSRLALPQPPPDPPAPPLAPPSSAWGGIRAAHAILGGLHLTLDWAVRGLLLLKTRL
notes: human interleukin 11 (IL-11); A His-tagged hIL-11 from E. coli (hIL-11his) was used only in some Western blots of signalling, not in SPR; also called hIL-11ts; hIL-11

Binder: B3
Kd [7]: 0.397 nM
koff [7]: 0.000142 s⁻¹
kon [7]: 360000 M⁻¹ s⁻¹
EC50 of proliferation of Ba/F3-hgp130 cells (hgp130 on cells), 72 h [8]: 0.0578 nM
